In paper PMC7916480, “Functional and Structural Characterization of Nucleic Acid Ligands That Bind to Activated Coagulation Factor XIII”:

T1: FXIIIa (activated coagulation factor XIII) (human, UniProt P00488 39-732)
T1 sequence: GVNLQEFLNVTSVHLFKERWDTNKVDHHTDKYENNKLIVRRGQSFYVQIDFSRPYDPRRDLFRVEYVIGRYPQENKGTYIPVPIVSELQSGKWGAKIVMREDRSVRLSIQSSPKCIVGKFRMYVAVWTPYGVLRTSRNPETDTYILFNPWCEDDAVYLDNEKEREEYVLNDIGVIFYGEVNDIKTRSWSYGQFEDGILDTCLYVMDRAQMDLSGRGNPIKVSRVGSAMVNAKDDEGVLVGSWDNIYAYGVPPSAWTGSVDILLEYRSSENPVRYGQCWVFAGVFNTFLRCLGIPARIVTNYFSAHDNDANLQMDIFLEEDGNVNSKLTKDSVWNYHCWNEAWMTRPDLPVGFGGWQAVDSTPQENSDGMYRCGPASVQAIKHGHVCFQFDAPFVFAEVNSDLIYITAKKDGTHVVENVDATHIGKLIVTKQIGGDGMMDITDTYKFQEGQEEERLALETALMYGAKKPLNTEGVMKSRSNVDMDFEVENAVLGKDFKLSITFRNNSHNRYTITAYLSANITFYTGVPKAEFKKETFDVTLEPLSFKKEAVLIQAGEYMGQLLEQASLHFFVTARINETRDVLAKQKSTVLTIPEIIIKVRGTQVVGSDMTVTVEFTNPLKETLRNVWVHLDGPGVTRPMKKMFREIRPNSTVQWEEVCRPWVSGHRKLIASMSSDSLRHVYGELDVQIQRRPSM

B1: FA3 (ssDNA)
DNA: AAGCAGTGGTAAGTAGGTTGACCATCGTAGTTCGTACACCAGTCCATTCTAGGACTCACAATCTCTTCGAGCAATCCACAC
B2: FA6 (ssDNA)
DNA: AAGCAGTGGTAAGTAGGTTGACGCTGCGGGCATCACGTAAGTTAATATATCACTCGGCTATTCTCTTCGAGCAATCCACAC
B3: FA8 (ssDNA)
DNA: AAGCAGTGGTAAGTAGGTTGATCATCATGTTATTTTTGTTCCATCACGCCAGTTCTGGTTCTCTCTTCGAGCAATCCACAC
B4: FA12 (ssDNA)
DNA: AAGCAGTGGTAAGTAGGTTGATCATCCTCTTTAAGTCATCACTTTAGTTTCTCCATCTACATCTCTTCGAGCAATCCACAC
B5: FA2 (ssDNA)
DNA: AAGCAGTGGTAAGTAGGTTGAGCTTTCATCACCCGTCGGTTAGACTAAGTCTCCAGCATCCTCTCTTCGAGCAATCCACAC
B6: FA1 (ssDNA)
DNA: AAGCAGTGGTAAGTAGGTTGACCATCCGCCGATTAGGCAATCACGTGGCTTAGGCACCGTATCTCTTCGAGCAATCCACAC

How the values were obtained:
[1] = target: activated coagulation factor XIII (FXIIIa), recombinant human (human) (UniProt P00488)
[2] = target: T1, FXIIIa (activated coagulation factor …); experiment: competition; competition with immobilized fibrinogen, 25 nM FXIIIa; BLI (BLItz, SAX sensors, 3'-biotinylated aptamer 1 µM) in binding buffer, 2200 rpm; buffer composition, pH and temperature not in material; plate capture 30 min; fibrinogen competition 30 min at RT; conditions: protein: recombinant; chain copies: 2; label: 3'-biotin (BLI, capture, fibrinogen assay)
[3] = target: T1, FXIIIa (activated coagulation factor …); experiment: BLI; BLI (BLItz, SAX sensors, 3'-biotinylated aptamer 1 µM) in binding buffer, 2200 rpm; buffer composition, pH and temperature not in material; plate capture 30 min; fibrinogen competition 30 min at RT; conditions: protein: recombinant; chain copies: 2; label: 3'-biotin (BLI, capture, fibrinogen assay)
[4] = target: T1, FXIIIa (activated coagulation factor …); experiment: pull-down (aptamer-coated plate, activity read-out); 30 nM FXIIIa; BLI (BLItz, SAX sensors, 3'-biotinylated aptamer 1 µM) in binding buffer, 2200 rpm; buffer composition, pH and temperature not in material; plate capture 30 min; fibrinogen competition 30 min at RT; conditions: protein: recombinant; chain copies: 2; label: 3'-biotin (BLI, capture, fibrinogen assay)
[5] = target: T1, FXIIIa (activated coagulation factor …); experiment: competition; competition with immobilized fibrinogen; not affected; BLI (BLItz, SAX sensors, 3'-biotinylated aptamer 1 µM) in binding buffer, 2200 rpm; buffer composition, pH and temperature not in material; plate capture 30 min; fibrinogen competition 30 min at RT; conditions: protein: recombinant; chain copies: 2; label: biotin (capture)

Molecule | inhibition of FXIIIa isopeptidase activity (fluorogenic peptide substrate, 12.8 nM FXIIIa) by tridegin, up to 12 µM [1] [%] | IC50 [2] [nM] | Kd [3] [nM] | binding signal [4] [% captured] | binding result [5]
Tridegin (peptide) | 50 |  |  |  | 
B1 |  | 66.2 | 92.9 | ~5 | 
B2 |  | 57 | 93.5 | ~5 | 
B3 |  | 136 | 79.1 |  | 
B4 |  | 38 | 51.8 | 10 | 
B5 |  | 39.3 | 79.1 |  | 
B6 |  | 89.5 | 50.4 |  | 
TACTGTCACGAGGATATAGCACATTAGTTCAGATACGATTGTTACTGTCA (ssDNA) [negative control oligonucleotide] |  |  |  |  | no binding
